Laboratory results as given in the supplement of paper PMC7877785.
± gives the uncertainty stated by the source.

Test: self-splicing fitness, log relative to wild type (ln ratio); higher = more splicing; Tetrahymena group I intron in knt gene, E. coli kanamycin selection, DiMSum; sequences stand for … in CUCUCU…GGAGGGAAAAGUUAUCAGGCAUGCACCUGGUAGCUAGUCUUUAAACCAAUAGAUUGCAUCGGUUUAAAAGGCAAGACCGUCAAAUUGCGGGAAAGGGGUCAACAGCCGUUCAGUACCAAGUCUCAGGGGAAACUUUGAGAUGGCCUUGCAAAGGGUAUGGUAAUAAGCUGACGGACAUGGUCCUAACCACGCAGCCAAGUCCUAAGUCAACAGAUCUUCUGUUGAUAUGGAUGCAGUUCACAGACUAAAUGUCGGUCGGGGAAGAUGUAUUCUUCUCAUAAGAUAUAGUCGGACCUCUCCUUAAUGGGAGCUAGCGGAUGAAGUGAUGCAACACUGGAGCCGCUGGGAACUAAUUUGUAUGCGAAAGUAUAUUGAUUAGUUUUGGAGUACUCGUGGUCG
Procedure, shortened: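 DiMSum derived fitness as the error-weighted combination of fold changes across replicates, kanamycin versus no kanamycin, normalised to wild type. E. coli BL21(DE3) held the library, which randomised all eight P1ex-region intron nucleotides within the knt kanamycin-resistance gene on pET-22b(+). Six replicate transformations grew overnight at 37°C or 30°C on LB agar with or without 25 μg/mL kanamycin, also containing 100 μg/mL carbenicillin, 50 μM IPTG and 0.2% rhamnose, and pooled colonies were amplicon-sequenced on an Illumina HiSeq 2500.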

| Sequence | self-splicing fitness (ln) (30 °C) | self-splicing fitness (ln) (37 °C) |
| --- | --- | --- |
| GCCCAGCAAUAUUACGAUGU | 0.0553 ± 0.048 | 0.51 ± 0.069 |
| GCCCAGCAAUAUUACGCGUC | -1.17 ± 0.067 | -0.202 ± 0.075 |
| GCCCAGCAAUAUUACGCUGG | -2.86 ± 0.15 | -3.32 ± 0.28 |
| GCCCAGCAAUAUUACGGCAU | -3.47 ± 0.13 | -1.01 ± 0.1 |
| GCCCAGCAAUAUUACGGUAG | -4.78 ± 0.23 | -2.51 ± 0.19 |
| GCCCAGCAAUAUUACGGUCC | -3.39 ± 0.18 | -1.97 ± 0.28 |
| GCCCAGCAAUAUUACGUAAC | -0.899 ± 0.074 | -0.153 ± 0.1 |
| GCCCAGCAAUAUUACGUAUG | -3.42 ± 0.18 | -2.09 ± 0.18 |
| GCCCAGCAAUAUUACGUCAG | -3.98 ± 0.2 | -2.82 ± 0.23 |
| GCCCAGCAAUAUUACGUGAC | -1.38 ± 0.057 | -0.584 ± 0.069 |
| GCCCAGCAAUAUUACGUUGU | -0.273 ± 0.044 | 0.021 ± 0.056 |
| GCCCAGCAAUAUUACGUUUG | -3.95 ± 0.14 | -1.84 ± 0.14 |
| GCCGAGCAAUAUUACGAAAG | -2.81 ± 0.33 |  |
| GCCGAGCAAUAUUACGACUG | -2.66 ± 0.23 | -3.53 ± 0.42 |
| GCCGAGCAAUAUUACGCCUC | -2.91 ± 0.42 | -1.88 ± 0.4 |
| GCCGAGCAAUAUUACGCGCU | -1.78 ± 0.2 | -2.77 ± 0.34 |
| GCCGAGCAAUAUUACGCGUC | -0.898 ± 0.14 | -0.0598 ± 0.2 |
| GCCGAGCAAUAUUACGGAAA | -0.987 ± 0.1 | -0.953 ± 0.1 |
| GCCGAGCAAUAUUACGGAUA | -1.68 ± 0.14 | -0.192 ± 0.13 |
| GCCGAGCAAUAUUACGGAUU | -1.37 ± 0.08 | -0.945 ± 0.092 |
| GCCGAGCAAUAUUACGGCGA | -0.848 ± 0.21 | -1.42 ± 0.24 |
| GCCGAGCAAUAUUACGGCGU | -2.55 ± 0.13 | -0.897 ± 0.1 |
| GCCGAGCAAUAUUACGGCUA | -2.04 ± 0.35 | -1.35 ± 0.27 |
| GCCGAGCAAUAUUACGGCUG | -3.31 ± 0.34 | -2.96 ± 0.38 |
| GCCGAGCAAUAUUACGGGAC | -0.849 ± 0.11 | -1.12 ± 0.15 |
| GCCGAGCAAUAUUACGGGCG | -1.18 ± 0.17 | -0.688 ± 0.18 |

| Sequence | self-splicing fitness (ln) (30 °C) | self-splicing fitness (ln) (37 °C) |
| --- | --- | --- |
| GCCGAGCAAUAUUACGGGGC | -4.27 ± 0.39 | -2.28 ± 0.27 |
| GCCGAGCAAUAUUACGGUCC | -3.18 ± 0.29 | -1.23 ± 0.33 |
| GCCGAGCAAUAUUACGUAUC | -2.66 ± 0.16 | -1.75 ± 0.13 |
| GCCGAGCAAUAUUACGUCCA | -1.27 ± 0.48 | -1.32 ± 0.32 |
| GCCGAGCAAUAUUACGUCCC | -0.316 ± 0.14 | -0.826 ± 0.22 |
| GCCGAGCAAUAUUACGUGAU | -1.01 ± 0.073 | -0.638 ± 0.088 |
| GCCGAGCAAUAUUACGUGGU | -3.39 ± 0.14 | -2.47 ± 0.16 |
| GCCGAGCAAUAUUACGUUAA | -3.34 ± 0.27 | -1.78 ± 0.18 |
| GCCUAGCAAUAUUACGAAAA | -3.05 ± 0.33 | -1.04 ± 0.26 |
| GCCUAGCAAUAUUACGAACC | -1.07 ± 0.27 | 0.0441 ± 0.29 |
| GCCUAGCAAUAUUACGAAUC | -1.36 ± 0.066 | 0.0359 ± 0.086 |
| GCCUAGCAAUAUUACGAAUG | -2.57 ± 0.18 | -2.43 ± 0.25 |
| GCCUAGCAAUAUUACGACCG | -1.8 ± 0.34 | -0.867 ± 0.39 |
| GCCUAGCAAUAUUACGACGG | -3.6 ± 0.31 | -2.37 ± 0.27 |
| GCCUAGCAAUAUUACGAGGC | -4.1 ± 0.36 | -1.77 ± 0.26 |
| GCCUAGCAAUAUUACGAUCC | -1.08 ± 0.093 | 0.0207 ± 0.13 |
| GCCUAGCAAUAUUACGAUGG | -3.13 ± 0.21 | -2.05 ± 0.21 |
| GCCUAGCAAUAUUACGCCUA |  | -2.79 ± 0.43 |
| GCCUAGCAAUAUUACGCGUA | -1.89 ± 0.13 | -0.683 ± 0.12 |
| GCCUAGCAAUAUUACGCUAU | -0.383 ± 0.11 | -0.105 ± 0.17 |
| GCCUAGCAAUAUUACGCUCA | -1.68 ± 0.16 | -0.0373 ± 0.17 |
| GCCUAGCAAUAUUACGCUCG | -2.7 ± 0.2 | -2.06 ± 0.3 |
| GCCUAGCAAUAUUACGCUGC |  | -1.32 ± 0.21 |
| GCCUAGCAAUAUUACGCUUU | -0.497 ± 0.097 | -0.0274 ± 0.12 |
| GCCUAGCAAUAUUACGGACC | -1.6 ± 0.19 | -1.31 ± 0.28 |
| GCCUAGCAAUAUUACGGACU | -1.01 ± 0.1 | -0.221 ± 0.11 |

| Sequence | self-splicing fitness (ln) (30 °C) | self-splicing fitness (ln) (37 °C) |
| --- | --- | --- |
| GCCUAGCAAUAUUACGGAUG | -1.84 ± 0.11 | -0.882 ± 0.12 |
| GCCUAGCAAUAUUACGGCAU | -3.27 ± 0.27 | -0.94 ± 0.13 |
| GCCUAGCAAUAUUACGGGUC | -4.6 ± 0.36 | -2.89 ± 0.25 |
| GCCUAGCAAUAUUACGGUAU | -0.978 ± 0.07 | -0.02 ± 0.08 |
| GCCUAGCAAUAUUACGGUCG | -3.36 ± 0.2 | -2.5 ± 0.25 |
| GCCUAGCAAUAUUACGGUCU | -1.12 ± 0.067 | -1.08 ± 0.078 |
| GCCUAGCAAUAUUACGGUUA | -1.47 ± 0.11 | -0.443 ± 0.091 |
| GCCUAGCAAUAUUACGUAAA | -1.1 ± 0.076 | -0.594 ± 0.093 |
| GCCUAGCAAUAUUACGUACU | -0.867 ± 0.092 | -0.282 ± 0.093 |
| GCCUAGCAAUAUUACGUCGG | -3.62 ± 0.19 | -2.93 ± 0.21 |
| GCCUAGCAAUAUUACGUCGU | -0.763 ± 0.068 | -0.337 ± 0.069 |
| GCGAAGCAAUAUUACGAACC | -1.67 ± 0.13 | -1.06 ± 0.15 |
| GCGAAGCAAUAUUACGACCA | -0.945 ± 0.21 | -0.159 ± 0.38 |
| GCGAAGCAAUAUUACGACUC | -0.212 ± 0.086 | 0.367 ± 0.1 |
| GCGAAGCAAUAUUACGAGAC | -2.67 ± 0.26 | -1.46 ± 0.25 |
| GCGAAGCAAUAUUACGAUAA | -2.27 ± 0.15 | -1.46 ± 0.2 |
| GCGAAGCAAUAUUACGAUAU | -2.52 ± 0.13 | -1.22 ± 0.12 |
| GCGAAGCAAUAUUACGAUCC | -1.64 ± 0.21 | -1.76 ± 0.3 |
| GCGAAGCAAUAUUACGCCUA | -3.1 ± 0.45 | -2.39 ± 0.34 |
| GCGAAGCAAUAUUACGCGAA | -2.2 ± 0.13 | -1.68 ± 0.14 |
| GCGAAGCAAUAUUACGCGCA | -1.75 ± 0.36 | -1.11 ± 0.22 |
| GCGAAGCAAUAUUACGCGUC |  | -1.65 ± 0.17 |
| GCGAAGCAAUAUUACGCGUU | -2.54 ± 0.15 | -2.77 ± 0.27 |
| GCGAAGCAAUAUUACGCUAG | -3.28 ± 0.26 | -0.964 ± 0.32 |
